Biological target: Fused MjGMPS (MjATPPase subunit fused to the C-terminus of MjGATase, no intervening linker) (Methanocaldococcus jannaschii)
Experiment: SEC

Fused MjGMPS (MjATPPase subunit fused to the C-terminus of MjGATase, no intervening linker) (enzyme)
stoichiometry N: 2
